Residue numbers refer to the chain shown, from its start. “And” between values parts separate entries of the source, which are not always exact repeats. Equal values may be shown once.

Data set [1] deals with iASPP C-terminal domain (CTD) (UniProt Q8WUF5). Kind of data set: ITC; peptide titrated to the CTD or SH3 domain; VP-ITC; 25 mM HEPES pH 7.5, 150 mM NaCl, 500 µM TCEP; single-site binding model (AB hetero association). (In ITC the heat of successive injections is recorded.)
The test system of data set [2] is p63 DBD-TD WT. Nature of the data set: ELISA. To be noted: ELISA: DPBS, 0.1% Tween-20, 10% Superblock, RT, 1 h; DNA pull-down: 50 mM Tris pH 8.0, 150 mM NaCl, 0.1% Tween-20, 4 C, 3 h. (An ELISA detects its analyte on a solid surface through an enzyme-linked reagent.)
The target in data set [3] is iASPP SH3 (Homo sapiens) (UniProt Q8WUF5). To be noted: cited from earlier work.
In data set [4] the target is iASPP CTD with N813 and Y814 mutated (UniProt Q8WUF5). Kind of data set: not stated; affinities of peptides for iASPP CTD shown in Supplementary Fig. S5B, C, E; the text does not name the method.
The target of data set [5] is T1, iASPP CTD (UniProt Q8WUF5 625-828).
T1 chain: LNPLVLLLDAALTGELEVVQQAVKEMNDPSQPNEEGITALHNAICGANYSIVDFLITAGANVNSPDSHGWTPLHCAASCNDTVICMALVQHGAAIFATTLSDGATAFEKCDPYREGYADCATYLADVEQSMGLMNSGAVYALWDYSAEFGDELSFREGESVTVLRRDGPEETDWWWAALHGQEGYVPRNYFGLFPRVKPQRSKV
Nature of the data set: ITC.

Data set [6] addresses T2, ASPP2 CTD (UniProt Q13625 925-1128).
T2 chain: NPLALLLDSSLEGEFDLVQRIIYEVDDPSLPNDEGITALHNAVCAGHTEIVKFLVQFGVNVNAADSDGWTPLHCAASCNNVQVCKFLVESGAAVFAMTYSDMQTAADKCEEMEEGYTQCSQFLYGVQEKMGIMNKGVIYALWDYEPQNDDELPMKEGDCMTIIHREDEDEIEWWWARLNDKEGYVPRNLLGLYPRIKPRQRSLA
Nature of the data set: ITC.

The target of data set [7] is T3, iASPP C-terminal domain (CTD) (UniProt Q8WUF5 625-828).
T3 construct: iASPP C-terminal domain (four ankyrin repeats and SH3 domain); The limits 625-828 are printed for the CTD in the crystallisation fusion; no separate limits are printed for the CTD used in ITC and NMR; For NMR the same construct was 15N-labelled (M9 medium); also called iASPP CTD; source: E. coli BL21(DE3) Rosetta, purified (IMAC, TEV cleavage, reverse IMAC, ion exchange, SEC); not shown: His10, …
T3 sequence (looked up): T1 chain
Kind of data set: ITC; peptide titrated to the CTD or SH3 domain; VP-ITC; 25 mM HEPES pH 7.5, 150 mM NaCl, 500 µM TCEP; single-site binding model (AB hetero association). The note with it: both partners purified.

The target in data set [8] is T4, iASPP CTD N813A Y814A double mutant (UniProt Q8WUF5 625-828, N813A | Y814A).
T4 construct: iASPP C-terminal domain with N813A and Y814A; limits as for the iASPP CTD (amino acids 625-828, printed for the crystallised fusion); also called iASPP NY; N813A Y814A iASPP double mutant; source: E. coli BL21(DE3) Rosetta, purified (IMAC, TEV cleavage, reverse IMAC, ion exchange, SEC); not shown: His10, N-terminal, cleaved
T4 sequence (looked up): T1 chain with N189A, Y190A
The description is as above. The note with it: both partners purified.

For data set [9], the target named is iASPP CTD (UniProt Q8WUF5). Kind of data set: ITC; peptide or DBD titrated to ASPP CTD; VP-ITC; 25 mM HEPES pH 7.5, 150 mM NaCl, 500 µM TCEP; AB hetero association (single-site) model.
The target of data set [10] is iASPP CTD (UniProt Q8WUF5). Nature of the data set: NMR titration; unlabelled p63 linker peptide (up to 500 µM) with 100 µM 15N-iASPP CTD; 288 K; 25 mM HEPES pH 7.0, 50 mM NaCl, 5 mM DTT; KD from CSPs of selected residues of the SH3 domain, one-site model.
Data set [11] addresses T3, iASPP C-terminal domain (CTD). Kind of data set: ITC; peptide titrated to the CTD or SH3 domain; VP-ITC; 25 mM HEPES pH 7.5, 150 mM NaCl, 500 µM TCEP; single-site binding model (AB hetero association). The note with it: both partners purified. This is another data set of the same source.
For data set [12], the target named is T5, iASPP CTD (UniProt Q8WUF5 625-828).
T5 construct: iASPP, C-terminal domain (CTD: ankyrin repeats and SH3 domain), amino acids 625-828; In the crystal structure this stretch stood fused behind the p63 peptide; also called iASPP CTD (amino acids 625-828); 15N-labelled iASPP CTD; source: E. coli BL21(DE3) Rosetta, purified (IMAC, TEV cleavage, reverse IMAC, ion exchange, SEC); for NMR grown in M9 minimal medium (15N or 15N,13C labelled); not …
T5 sequence (looked up): T1 chain
Nature of the data set: not stated; affinities of peptides for iASPP CTD shown in Supplementary Fig. S5B, C, E; the text does not name the method. The note with it: both partners purified.

Regarding p63 linker pT335 peptide, the Kd in data set [1] turned out to be 132 µM.
Same read-out and setting: the value for “optimized p63 linker peptide (p63opt, 331-344)” was 1.65 µM.
Take p21 promoter RE 20 bp: in [2], the Kd is 0.115 µM.
With iASPP, the dissociation constant (Kd) in data set [3] is 45 µM.
Molecule p63 linker peptide registered a fold reduction of the affinity against wild-type iASPP CTD in data set [4] of 2 fold.
In the case of p63 linker acK336 peptide, in data set [1], the Kd was 94.3 µM.
As for PPGSTKRALPNNTS (limits not given; taken as the region aligned to p63 331-344), the Kd in data set [5] turned out to be 135 µM; in [6] it was 172 µM.

B1: p63 linker peptide (331-344) (peptide)
peptide: NGDGTKRPFRQNTH
notes: p63 linker region between DBD and OD, residues 331-344; also called p63 peptide (331-344); p63 linker WT
Consider B1, for which the Kd in data set [7] is 148 µM and 70.1 µM; in data set [8], 186 µM.

B2: p53 linker peptide (peptide)
chain: PPGSTKRALPNNTS
modifications: limits not given; taken as the region aligned to p63 linker peptide 331-344 (p53 R248 = p63 R279, K305 = K336)
The molecule B2 showed a Kd in [7] of 55.2 µM.

B3: p63 DBD (domain or fragment)
chain: SPAIPSNTDYPGPHSFDVSFQQSSTAKSATWTYSTELKKLYCQIAKTCPIQIKVMTPPPQGAVIRAMPVYKKAEHVTEVVKRCPNHELSREFNEGQIAPPSHLIRVEGNSHAQYVEDPITGRQSVLVPYEPPQVGTEFTTVLYNFMCNSSCVGGMNRRPILIIVTLETRDGQVLGRRCFEARICACPGRDRKADEDSIRKQ
modifications: one Zn2+ bound; start from the paper's DBD constructs (123 + 39 = 162), end from the DNA_BIND feature (362 = paper 323)
In [6], B3 had a Kd of 13.6 µM.

B4: p73 linker peptide (peptide)
chain: NGAASKRAFKQSPP
modifications: limits not given; taken as the region aligned to p63 331-344 (p63 K336 = p73 K327)
As to B4, the Kd in data set [5] was 33.8 µM; in data set [6], 92.9 µM.
On to GDGTKRPFRQN [p63 linker peptide], for which the values for the Kd in data set [6], in [9] and in [10] were 288 µM, 90 µM and 64 to 105 µM, respectively.
In data set [11], NPGGRPITPPRNSA (peptide, UniProt P62136 313-326, looked up, also called PP1α (313-326)) [PP1α peptide (amino acids 313-326)] had a Kd of 0.186 µM.
In data set [12], GDGPKRPFRQN came in with a Kd of 1.7 µM.

Usually Kd stands for the constant that tells how readily two partners part at equilibrium.

These data come from paper PMC11704248, “Alternative splicing in the DBD linker region of p63 modulates binding to DNA and iASPP in vitro” (Cell Death & Disease, 2025).
